The text below walks through data of doi:10.1101/2025.03.30.646023 (bioRxiv, 2025).

One experiment deals with LC556375.1 RBD (Sarbecovirus Rc-o319 (Rhinolophus …, strain)). Briefly: flow cytometry on cells.
The target in experiment [1] is T1, SARS-CoV-2 spike S2 [aa 1149-1167] peptide (SARS-CoV-2, UniProt P0DTC2).
T1 chain: KEELDKYFKNHTSPDVDLG
The experiment can be described thus: crystal structure.

Experiment [2] concerns the target T2, SARS-CoV-2 spike S2 stem helix peptide (amino acid 1143 - 1162) (SARS-CoV-2, UniProt P0DTC2, biotin, amino-terminus).
T2 chain: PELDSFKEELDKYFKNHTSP
Briefly: SPR.

Changes are numbered by the printed parent chain.

B1: PRO-37587 (antibody, V domains shown)
VH: QVQLVQSGAEVKKPGSSVKVSCKASGDTSDTYTISWVRQAPGQGLEWMGRIILLSGYANYAQKIQGRVTITADKSTSTAYMELTSLRSDDTAVYYCARGFNGDYYGWGDDDAFDFWGQGTLVTVYS
VL: QTVLTQPPSVSGAPGQRVTISCTGSSSNIGAGYRVHWYQQLPGTAPKLLIAGRSNRPSGVPDRFSGSKSGTSASLAITGLQAEDEADYYCQSYDSSLFDPHWVFGGGTKLTVL
In the case of B1, in the experiment with LC556375.1 RBD, the binding result was “no binding (tested: 1 nM)”.

B2: GB-0669 Fab (Fab, V domains shown)
VH: EVQLVESGAEVKKPGESLKISCKGSGYTFTRYWIGWVRQMPGKGLEWMGIIYPGDSDVRYSPSFQGHVTISADKSISTAYLQWNSLKASDTAMYYCARLPQYCSKGVCYRWFDPWGQGTLVTVSS
VL: EIVLTQSPSSVSASVGDRVTITCRASQGISSWLAWYQQKPGKAPKLLIYAASSLQSGVPSRFSGSGSGTDFTLTISSLQPEDFATYYCQQGHSFPYTFGQGTNLEIK
Take B2: the binding result in experiment [1] and in experiment [2] was “binds” throughout.

B3: CV3-25 Fab (Fab, V domains shown)
VH: B2 VH with V58T, K105N, Y109Q
VL: B2 VL with H92N
On to B3, for which the binding result in experiment [2] is reported as “binds”.
